According to publication PMC2951370, “Concerted Action of Two Formins in Gliding Motility and Host Cell Invasion by Toxoplasma gondii” (PLoS Pathogens, 2010):

What was measured:
[1] = molecular target: DD-myc-F1-IR/AA (Toxoplasma gondii); assay: co-IP; two sequential anti-myc immunoprecipitations (48 hrs Shld-1); IPs and flow throughs blotted, bands quantified with ImageJ and normalised to the input
[2] = molecular target: DD-myc-F2-R/A (Toxoplasma gondii); assay: as above
[3] = molecular target: the molecule itself; assay: SEC; purified FH2 domains on Superose 6 10/300 GL, 0.4 ml/min, PBS-NaCl 0.15 M buffer, to determine their oligomeric state

Work on “Toxoplasma gondii Formin 1 (TgFRM1), endogenous (natural protein)” yielded a percent of the input formin left in the second flow through after two anti-myc IPs (not co-precipitated) [1] of 30%.

For “Toxoplasma gondii Formin 2 (TgFRM2), endogenous (natural protein)”, the percent of the input formin left in the second flow through after two anti-myc IPs (not co-precipitated) [2] was 17%.

B1: His-F2 (FH2 domain of TgFRM2) (domain or fragment, Toxoplasma gondii, UniProt D0V3Y1 3317-4043, looked up)
chain: TGSYPGASDKSQQTFSAGAPSSGTNARTESTPAGAGETGASGEAKAPAAPKKKAMPPPPPPGKTPGDASKAPGGPPGKGKAPPLPKGKKAPQLGKAPKAGGPPKKADAVDPMTLPLRRKIHWKTLGKEQIEGTVFKELEGDPAIPDMFDPEAISRLFSATLTVKSDEAAVKAAPKKAEEKKHTILDNKRAQNVAIVLARLPLSLDAIAQKMLHLDTEGLTVDILQKVEQVAPTPEELVKFREYEELKKTENTGDLRDVEKKMTALIPVTRLSSRVRVMQTALQWEKVVEEIEKQLALLCKAADEAHNSRKFRSLLQAVLQWGNYVNHGVKKAPKGQEVSSESEARKAETTSPTEGDRRENRQTLQQLPPILLVKELPTKGFKLASLEKLMEFRTTVDKSICSLHFIISNLIVSLPELDILDLASDMPSLEAAARLSDESIDAPVSYLRNEAAFLLSQIHAIKQVLAAKDATATDPSGAPRPSGSKPQTDEALHAELTRLQKLHGEMVLTLERLRESYLNCKAVIGEVGRFYGEDGPKKPSAGKHKLKGQAVSVDAGGSATAGGVIAEWEFGLLDQSPFELLFSILSTCRQGLRDVQANPRKYAILLVGRFASEEEKWKLLKFHIDNSLANRKRVTGCRGSDAEQVAGRPQDADKAGSSVVSSPRTTPRGSIASRGGKKLIVGRHGPEAGGTPQIPRGPPKSDNGSFTETQRLGRGLSEGSEDALSSP
notes: also called F2-WT; His-GST-F2; source: E. coli, purified (Ni-NTA under native conditions)
B1 was tested, and the “stoichiometry N” value [3] was 2.

B2: His-F1L (FH2 domain of TgFRM1 with an N-terminal 48 amino acid proline-rich extension) (domain or fragment)
chain: KKPEAPKKEEAKPKPEAKKEAPKKGPPGGKGGKGPPGKGPPKGKGKGPKKKGEGGLKVGKKDEGKTKRFFWDPIFEDEIPGTIFMKKPNMVLKLQDVEETFAKVVAKKKTESKKPKIIQLLPDSKRAYNMSIALSKFNNYSYQQLREAIIDLDPKILTIEATETLLNFVPTGEENQVVKEYINSGGDLKLVDKPEQFVAAMLGVPLMKQRLEAHAFALNFREAYSDAYTPLENMADACDAIDDSQNLKIVLFAILELGNALNEGDPQRGGAAGFKPTTLAKLQEIRTTTKPVRTMLQYICDIIWEQQPTALNIYEDLKICDKAQRVDMQGIEGRISNLKAGLTKVKNTLEAAKKGNESTGVMGDRDPLRNIMDEFLIEAEPKIKQLDDFLVQVQNQFLQTCHYSGYPDKDVKKIKPDELFKQVAGFARQVDAIRKQKQEIADRELKRKEAEAKRAGKGLKSTAVKKVGMK
notes: source: E. coli, purified (Ni-NTA under native conditions)
With B2 the “stoichiometry N” value [3] was 2.
